Substitutions are numbered along the chain they refer to.
Assays:
CCL5_HUMAN = biological target: T1, CCL5_HUMAN (Homo sapiens, UniProt P13501); assay: Yeast surface display (YSD) FACS binding
T1 sequence (P13501 24-91): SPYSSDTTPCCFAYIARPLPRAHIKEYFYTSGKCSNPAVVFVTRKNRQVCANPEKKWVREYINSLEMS
Procedure: (§1) Table 1. Tick CKBPs described in PCT/GB2017/050563 and [17]. Tick peptide sequences isolated in yeast surface display fluorescent-activated cell sorting (FACS) screens using a labelled chemokine. Identity with Evasin-1, 4 or 3 was calculated using BLAST. Abbreviations: IXORI—Ixodes ricinus, RHISA—Rhipicephalus sanguineus, AMBMA—Amblyomma maculatum, AMBPA—Amblyomma parvum, AMBTR—Amblyomma triste, AMBAM—Amblyomma americanum, AMBCA—Amblyomma cajennense, RHIPU—Rhipicephalus pulchellus. Table 2A-C. Binding characteristics of tick CKBPs previously disclosed (PCT/GB2017/050563 and [17]). All members of the human chemokine family[164] are listed in column 1. Binding to human chemokines was determined for 14 tick CKBPs using biolayer interferometry (BLI) with calculated Kd shown as Molar (Moles/Litre). Binding data for 17 other novel tick CKBPs was assayed using yeast surface display[17,166],with positive binding results shown as “YES”. For biolayer interferometry, His-tagged purified tick CKBP was bound to a Ni-NINTA sensor on an OctetRed® 384 system, and then binding to each chemokine listed (with the exception of CCL25, CCL26, CXCL16, CXCL17, CXCL4L1, XCL2) was assayed in a cross-binding screen at a chemokine concentration of 300 nM as described. For those chemokines showing binding to a tick CKBP in the cross-binding screen, binding assays were repeated using different doses of chemokine. Association, equilibrium and dissociation data were analysed using Octet software to create corresponding fitted curves, and used to calculate Kd. For yeast surface display, (YSD) background fluorescence was controlled for by using either an empty vector or by omitting the chemokine (i.e. using streptavidin-Alexa647 alone). An arbitrary threshold of >3 fold over background mean fluorescence intensity was chosen to describe confirmed re-tests. Where binding was detected data are indicated as “YES”. […] For yeast surface display data, empty cells represent chemokines that were not tested. Binding data published in relation to previously described tick CKBPs (Evasins-1, 4 and 3) is also shown for comparison in each of FIGS. 2A-C, with the relevant data obtained from publications: [20-22,32]. Table 3: Neutralisation of human chemokines by tick CKBPs previously disclosed (PCT/GB2017/050563 and [17]). Neutralising activity was determined using a quantitative THP1 cell migration assay in a 96-well Boyden chamber with chemokine in the bottom chamber as described. Cells migrating through to the bottom chamber at 4 hours were counted using flow cytometry in a 96 well plate format. IC50 for neutralisation was determined at the chemokine EC80 dose as determined using a range of tick CKBP concentrations. Data was analysed using GraphPad Prism to determine IC50, which is shown as Molar (Moles/Litre). Empty cells represent experiments not done. Table 4—Other previously described tick CKBPs. Tick CKBPs that were also described in PCT/GB2017/050563 and Singh et al. are indicated in “Notes”. Table 5.—Novel tick CKBPs of the invention. Table 6. […] The peptide sequence prefix indicates the identity, and suffix indicate the tick species as follows: AMBCA, Amblyomma cajennense and IXORI, Ixodes ricinus. […] Certain tick peptides e.g. P1074_IXORI were recovered from screens performed with more than one chemokine. Individual yeast clones recovered from the library were re-tested using a FACS (fluorescence activated cell sorting), experiment. The binding of the peptide to the chemokine was assayed by measuring the percent (%), of yeast cells expressing the given peptide that exceeded a background threshold set by measuring the fluorescence of the yeast library pool treated with streptavidin-[…] alone. When more than one independent yeast clone was isolated for a given peptide-chemokine combination, the mean percent shift was calculated and reported in column 3. […]

CCL14_HUMAN = biological target: T2, CCL14_HUMAN (Homo sapiens, UniProt Q16627); assay: Biolayer interferometry (BLI) binding
T2 sequence (Q16627 20-93): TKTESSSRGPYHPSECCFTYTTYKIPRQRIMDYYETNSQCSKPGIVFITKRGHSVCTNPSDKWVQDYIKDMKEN
Procedure: as §1

CCL7_HUMAN = CCL7_HUMAN (Homo sapiens, UniProt P80098); assay: Biolayer interferometry (BLI) binding
Procedure: as §1

CCL11_HUMAN = CCL11_HUMAN (Homo sapiens, UniProt P51671); assay: Biolayer interferometry (BLI) binding
Procedure: as §1

CCL4_HUMAN = biological target: T3, CCL4_HUMAN (Homo sapiens, UniProt P13236); assay: Biolayer interferometry (BLI) binding
T3 sequence (P13236 24-92): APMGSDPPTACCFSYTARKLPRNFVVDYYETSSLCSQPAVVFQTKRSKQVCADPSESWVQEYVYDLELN
Procedure: as §1

CCL18_HUMAN = biological target: T4, CCL18_HUMAN (Homo sapiens, UniProt P55774); assay: Biolayer interferometry (BLI) binding
T4 sequence (P55774 21-89): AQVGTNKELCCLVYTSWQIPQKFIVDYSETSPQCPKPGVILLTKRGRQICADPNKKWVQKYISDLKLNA
Procedure: as §1

CCL8_HUMAN = biological target: T5, CCL8_HUMAN (Homo sapiens, UniProt P80075); assay: Biolayer interferometry (BLI) binding; settings: read-out: Kd, CCL8_HUMAN
T5 sequence (P80075 24-99): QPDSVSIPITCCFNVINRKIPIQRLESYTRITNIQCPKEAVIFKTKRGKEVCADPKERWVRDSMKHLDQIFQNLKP
Procedure: as §1

CCL13_HUMAN = CCL13_HUMAN (Homo sapiens, UniProt Q99616); assay: Biolayer interferometry (BLI) binding
Procedure: as §1

CCL3L1_HUMAN = CCL3L1_HUMAN (Homo sapiens, UniProt P16619); assay: Biolayer interferometry (BLI) binding
Procedure: as §1

CCL4L1_HUMAN = biological target: T6, CCL4L1_HUMAN (Homo sapiens, UniProt Q8NHW4); assay: Biolayer interferometry (BLI) binding
T6 sequence (Q8NHW4 24-92): T3 sequence (P13236 24-92) with S47G
Procedure: as §1

CCL2_HUMAN = CCL2_HUMAN (Homo sapiens, UniProt P13500); assay: Biolayer interferometry (BLI) binding
Procedure: as §1

CCL3_HUMAN = biological target: T7, CCL3_HUMAN (Homo sapiens, UniProt P10147); assay: Biolayer interferometry (BLI) binding
T7 sequence (P10147 24-92): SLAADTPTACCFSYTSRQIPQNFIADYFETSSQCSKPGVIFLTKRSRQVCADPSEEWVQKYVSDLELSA
Procedure: as §1

CXCL10_HUMAN = biological target: T8, CXCL10_HUMAN (Homo sapiens, UniProt P02778); assay: Yeast surface display (YSD) FACS binding; settings: yeast surface display
T8 sequence (P02778 22-98): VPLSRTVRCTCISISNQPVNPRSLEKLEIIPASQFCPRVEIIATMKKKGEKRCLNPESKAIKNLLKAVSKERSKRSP
Procedure: as §1

CXCL8_HUMAN = biological target: T9, CXCL8_HUMAN (Homo sapiens, UniProt P10145); assay: Yeast surface display (YSD) FACS binding; design: label (chemical); settings: FACS re-test; mean percent shift where several clones
T9 sequence (P10145 21-99): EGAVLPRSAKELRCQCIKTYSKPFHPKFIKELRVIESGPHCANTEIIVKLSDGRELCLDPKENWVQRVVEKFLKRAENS
Procedure: as §1

Sequence of CCL13_HUMAN (Q99616 17-98): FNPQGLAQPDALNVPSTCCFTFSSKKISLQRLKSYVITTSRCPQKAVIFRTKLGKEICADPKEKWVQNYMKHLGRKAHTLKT
Sequence of CCL3L1_HUMAN (P16619 24-93): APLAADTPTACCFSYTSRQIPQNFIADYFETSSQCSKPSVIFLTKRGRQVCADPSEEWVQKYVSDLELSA
Sequence of CCL11_HUMAN (P51671 24-97): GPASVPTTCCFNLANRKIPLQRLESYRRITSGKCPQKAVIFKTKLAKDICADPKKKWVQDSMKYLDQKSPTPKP
Sequence of CCL2_HUMAN (P13500 24-99): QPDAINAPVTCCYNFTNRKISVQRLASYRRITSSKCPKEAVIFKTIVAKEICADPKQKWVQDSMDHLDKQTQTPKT
Sequence of CCL7_HUMAN (P80098 24-99): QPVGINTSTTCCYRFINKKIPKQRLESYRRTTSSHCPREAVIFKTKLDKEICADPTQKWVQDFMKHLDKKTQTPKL

B1: P1063_AMBTR: tick CKBP, Amblyomma triste (protein)
chain: QSEVGKNVPGCGDTETLEAPPQEKPPYYEYKDEEGCTQKVLESWFQAGERSTGRGQKKRGHGRRPSRVLRTVDCRKNCTVGITALPDGHLCLVPRGDPFTRGGAIKYGCYLGDCASGHCQHRYETVSCRLPAPDTTAKPYYVTPEK
modifications: Amblyomma triste
Binding to CCL5_HUMAN, YSD (CCL5_HUMAN): YES (An arbitrary threshold of >3 fold over background mean fluorescence intensity was chosen to describe confirmed re-tests. Where binding was detected data are indicated as “YES”)

B2: P1181_AMBMA: tick CKBP, Amblyomma maculatum (protein, listed as Amblyomma maculatum)
chain: EEREDDNDYGGGCPFVVLGNGTHAKPAGCSHLCNGAPETLDNIECYNVTEEVAKRMTPDIPYTCWLGWCSKGECKRDNRTEVCYRGSERE
Kd (CCL14_HUMAN): 47 nM | Kd (CCL7_HUMAN): 120 nM | Kd (CCL11_HUMAN): 20 nM | Kd (CCL4_HUMAN): 53 nM | Kd (CCL18_HUMAN): 10 nM | Kd (CCL8_HUMAN): 14 nM | Kd (CCL13_HUMAN): 19 nM | Kd (CCL3L1_HUMAN): 3.3 nM | Kd (CCL4L1_HUMAN): 35 nM | Kd (CCL2_HUMAN): 74 nM | Kd (CCL3_HUMAN): 2.2 nM

B3: P1182_AMBMA: tick CKBP, Amblyomma maculatum (protein, listed as Amblyomma maculatum)
chain: EPKDDNDYGGGCPFVVLGNGTHAKPAGCSHLCNGAPETLDNIECYNVTEEVAKRMTPGIPYACWLGWCNKGECKRGNRTEVCYRGSEEE
Kd (CCL14_HUMAN): 50 nM | Kd (CCL11_HUMAN): 28 nM | Kd (CCL4_HUMAN): 63 nM | Kd (CCL18_HUMAN): 33 nM | Kd (CCL8_HUMAN): 29 nM | Kd (CCL13_HUMAN): 56 nM | Kd (CCL3L1_HUMAN): 9.5 nM | Kd (CCL4L1_HUMAN): 92 nM | Kd (CCL2_HUMAN): 74 nM | Kd (CCL3_HUMAN): 5.4 nM

B4: P1283_IXORI: tick CKBP, Ixodes ricinus (protein, listed as Ixodes ricinus)
chain: KEPEDTTLPPGALVDSPDSDNCSSPHLPYFDETTNMWMGFLAVNCTKKCPVGKHVTVVDGNKCIGTWSFLDELTITVLVGSCKDGFCETDGSSECRNITLAEEDSQEEEGAAAEEEDEEDEEDEEEEEAEEEREDDHDDA
Binding to CXCL10_HUMAN, YSD (CXCL10_HUMAN): YES (An arbitrary threshold of >3 fold over background mean fluorescence intensity was chosen to describe confirmed re-tests. Where binding was detected data are indicated as “YES”)

B5: P1128_IXORI: novel CXC-binding tick CKBP, Ixodes ricinus (protein, listed as Ixodes ricinus)
chain: KDDEHFSVDYCGMNCTQQEDGSWTACSGRNEECRCYHESGKKNGLCLSTTYIDFSQYGNPSDSDIAAASPRP
Chemokines bound in yeast surface display and % cells over threshold fluorescence: CXCL8_HUMAN (CXCL8_HUMAN): CXCL8_HUMAN 53%

B6: P1180_AMBTR: tick CKBP, Amblyomma triste (protein)
chain: EEPKDGYDYTEGCPFVVLGNGTHAKPAGCSHLCNGAPETLDDNMECYNVTEEVAKRMTPDIPYTCWLGWCSKGECKRDNRTEVCYRGSERE
modifications: Amblyomma triste
Kd (CCL14_HUMAN): 4.4 nM | Kd (CCL7_HUMAN): 98 nM | Kd (CCL11_HUMAN): 33 nM | Kd (CCL4_HUMAN): 66 nM | Kd (CCL18_HUMAN): 5.8 nM | Kd (CCL8_HUMAN): 3.6 nM | Kd (CCL13_HUMAN): 9 nM | Kd (CCL3L1_HUMAN): 2.2 nM | Kd (CCL4L1_HUMAN): 20 nM | Kd (CCL2_HUMAN): 53 nM | Kd (CCL3_HUMAN): 1.1 nM

B7: P1219_IXORI: tick CKBP, Ixodes ricinus (protein, listed as Ixodes ricinus)
chain: ASLAKETEDTTLPARALVDSPDSDNCSSPQLPYFDELTYMPLGFLAVNCTKTCPVGKNGTVVNGNKCIVTWSILDVSTITVLVGSCKNGYCISDGSSECRNITLAGEDSQEEEEEAEEDEEEDDGDEEEDEEEDEEENDDD
Binding to CXCL10_HUMAN, YSD (CXCL10_HUMAN): YES (An arbitrary threshold of >3 fold over background mean fluorescence intensity was chosen to describe confirmed re-tests. Where binding was detected data are indicated as “YES”)

B8: P1127_IXORI: novel CXC-binding tick CKBP, Ixodes ricinus (protein, listed as Ixodes ricinus)
chain: AGKDDEHFSVDYCGMNCTQQEDGSWTACSGRNGECRCYHESGKRSGLCLSTTYIDFSEYGNLSDSDIAAASPRLSMKESH
Chemokines bound in yeast surface display and % cells over threshold fluorescence: CXCL8_HUMAN (CXCL8_HUMAN): CXCL8_HUMAN 43%

B9: P1174_IXORI: novel CXC-binding tick CKBP, Ixodes ricinus (protein, listed as Ixodes ricinus)
chain: LNNENELFSVEYCGANCTQQDNGSWTKCKGNCTCYHEDGKRYGLCLSTEYTDFTQFPKPTSEEIADASPRPKETNSH
Chemokines bound in yeast surface display and % cells over threshold fluorescence: CXCL8_HUMAN (CXCL8_HUMAN): CXCL8_HUMAN 29%

B10: P1224_IXORI: tick CKBP, Ixodes ricinus (protein, listed as Ixodes ricinus)
chain: SDLCKMEAESSPFKLPQSSLLDAPDEEGCKYQLLFVEAEGPLVVNCTKDCPNGKIRTVVEGELCIAMVKTSSSGEATGLVGSCKRGSCVKKDDPCRTFTLSEEGDDDEEDEEEEEDEEEDEEEDEEEEEEDEEEED
Binding to CXCL10_HUMAN, YSD (CXCL10_HUMAN): YES (An arbitrary threshold of >3 fold over background mean fluorescence intensity was chosen to describe confirmed re-tests. Where binding was detected data are indicated as “YES”)

B11: P1170_IXORI: novel CXC-binding tick CKBP, Ixodes ricinus (protein, listed as Ixodes ricinus)
chain: LGDEDQLFSVEYCGTNCTQQDDGKWTPCSGKNGKCKCYHEDGKRYGLCLYTEYTDFSQYPNPEGSEIENTRPRP
Chemokines bound in yeast surface display and % cells over threshold fluorescence: CXCL8_HUMAN (CXCL8_HUMAN): CXCL8_HUMAN 81%
